Data published in patent US20210380675A1 (Kyowa Kirin, published 2021).
Residue numbers refer to the chain shown, from its start. Like-named read-outs stand apart in the source and are kept apart here.

T1: IL-36 receptor (heterodimer of IL-36R and IL-1RAcP) on human cells (human, UniProt Q9HB29 20-575; Q9NPH3 21-570)
T1 sequence (looked up) 1: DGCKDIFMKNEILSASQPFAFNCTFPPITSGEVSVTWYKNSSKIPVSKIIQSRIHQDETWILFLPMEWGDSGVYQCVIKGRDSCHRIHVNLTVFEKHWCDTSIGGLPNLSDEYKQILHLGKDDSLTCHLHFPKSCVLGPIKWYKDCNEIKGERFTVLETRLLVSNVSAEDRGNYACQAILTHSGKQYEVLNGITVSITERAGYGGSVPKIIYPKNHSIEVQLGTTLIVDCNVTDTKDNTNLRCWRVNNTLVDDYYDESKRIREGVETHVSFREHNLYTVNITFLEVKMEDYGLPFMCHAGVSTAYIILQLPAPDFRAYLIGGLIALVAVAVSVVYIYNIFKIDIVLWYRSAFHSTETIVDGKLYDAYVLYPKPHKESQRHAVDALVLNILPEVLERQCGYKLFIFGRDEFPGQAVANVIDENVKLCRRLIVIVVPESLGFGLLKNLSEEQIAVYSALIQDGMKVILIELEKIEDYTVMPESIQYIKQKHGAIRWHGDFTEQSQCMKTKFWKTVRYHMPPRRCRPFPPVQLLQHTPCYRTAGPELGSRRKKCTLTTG
T1 sequence (looked up) 2: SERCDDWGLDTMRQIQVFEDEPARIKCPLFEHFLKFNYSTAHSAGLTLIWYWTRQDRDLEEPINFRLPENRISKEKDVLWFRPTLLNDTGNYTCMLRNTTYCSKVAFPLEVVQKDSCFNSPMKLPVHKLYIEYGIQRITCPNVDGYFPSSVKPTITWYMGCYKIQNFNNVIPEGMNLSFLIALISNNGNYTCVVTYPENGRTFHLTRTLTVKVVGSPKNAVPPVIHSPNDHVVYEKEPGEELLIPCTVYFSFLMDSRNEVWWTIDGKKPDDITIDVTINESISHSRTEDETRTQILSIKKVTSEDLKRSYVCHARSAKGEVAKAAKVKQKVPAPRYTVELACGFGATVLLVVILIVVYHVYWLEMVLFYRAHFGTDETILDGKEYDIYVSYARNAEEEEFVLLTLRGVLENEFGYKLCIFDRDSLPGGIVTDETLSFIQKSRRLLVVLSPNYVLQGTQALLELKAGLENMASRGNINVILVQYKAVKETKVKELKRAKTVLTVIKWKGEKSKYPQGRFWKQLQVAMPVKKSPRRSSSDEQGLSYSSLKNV

T2: human IL-36α(R12), truncated (human, UniProt Q9UHA7 6-158)
T2 construct: Untagged after removal of the His-SUMO tag; also called hIL-36alpha
T2 chain: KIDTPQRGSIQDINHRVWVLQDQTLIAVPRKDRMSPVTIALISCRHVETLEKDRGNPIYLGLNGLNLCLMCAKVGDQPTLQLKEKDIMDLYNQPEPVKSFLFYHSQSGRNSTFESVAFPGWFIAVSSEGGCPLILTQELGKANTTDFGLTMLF

T3: cynomolgus IL-36α, truncated (cynomolgus macaque (Macaca fascicularis), UniProt Q9UHA7 14-158 (human entry), limits assumed)
T3 construct: Untagged after removal of the His-SUMO tag; also called cynomolgus IL-36 alpha; cyIL-36alpha
T3 chain: T2 chain with I2S, D3E, T4M, R7P, G8V, T24I, M34V, A40S, V74A

T4: cynomolgus IL-36γ, truncated (cynomolgus macaque (Macaca fascicularis), UniProt Q9NZH8 18-167 (human entry), limits assumed)
T4 construct: Untagged after removal of the His-SUMO tag; also called cynomolgus IL-36 gamma; cyIL-36gamma
T4 chain: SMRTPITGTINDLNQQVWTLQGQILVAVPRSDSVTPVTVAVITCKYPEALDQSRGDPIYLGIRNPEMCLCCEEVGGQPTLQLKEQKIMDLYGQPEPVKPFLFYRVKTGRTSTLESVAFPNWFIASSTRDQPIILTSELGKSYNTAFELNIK

T5: human IL-36α (R&D Systems cat#6995-IL-010/CF) (human, UniProt Q9UHA7 6-158)
T5 sequence (looked up): T2 chain with R7Q

B1: human IL-36Ra, truncated (ligand)
chain: VLSGALCFRMKDSALKVLYLHNNQLLAGGLHAGKVIKGEEISVVPNRWLDASLSPVILGVQGGSQCLSCGVGQEPTLTLEPVNIMELYLGAKESKSFTFYRRDMGLTSSFESAAYPGWFLCTVPEADQPVRLTQLPENGGWNAPITDFYFQQCD
B2: 144D464A LV9are HV10b (antibody, V domains shown)
VH: QVQLVQSGAEVKKPGASVKVSCKASGFNIKDTYIHWVRQAPGQGLEWIGRIDPAIGTTRYDPKFQGRATITTDTSTSTVYLEFSSLRSEDTAVYYCARLHYFGNNFFFDYWGQGTLVTVSS
VL: QAVVTQEPSLTVSPGGTVTLTCRSSSGAVTTSNYANWVQEKPGQLFAGLIGGTNDRAPGVPARFSGSLLGGKAALTLSGAQPEDEADYFCALWFSNHWVFGGGTKLTVL
notes: Humanized
B3: 144D464A LV7a HV10b (antibody, V domains shown)
VH: B2 VH
VL: B2 VL with E40Q, L45A, L77I
notes: Humanized; also called humanized 144D464A antibody LV7a HV10b
B4: 144L249B LV9 HV10c (antibody, V domains shown)
VH: QVQLVQSGAEVKKPGASVKVSCKASGFNIKDTYIYWVRQAPGQGLEWIGRIDPAIGTTRYDPKFQGKATLTADTSTNTAYLELSSLRSEDTAVYYCARYDYSGSSFYFDYWGQGTLVTVSS
VL: B2 VL with S26T, A47T, F94Y, W98L
notes: Humanized
B5: human IL-36γ, truncated (ligand)
chain: SMCKPITGTINDLNQQVWTLQGQNLVAVPRSDSVTPVTVAVITCKYPEALEQGRGDPIYLGIQNPEMCLYCEKVGEQPTLQLKEQKIMDLYGQPEPVKPFLFYRAKTGRTSTLESVAFPDWFIASSKRDQPIILTSELGKSYNTAFELNIND

Tests used:
[1] = target: T1, IL-36 receptor (heterodimer of IL-36R …); assay: cell-based or functional assay
[2] = target: T1, IL-36 receptor (heterodimer of IL-36R …); assay: cell-based or functional assay; remark: listed apart in the source
[3] = target: T1, IL-36 receptor (heterodimer of IL-36R …); assay: cell-based or functional assay; remark: listed apart in the source
[4] = target: T1, IL-36 receptor (heterodimer of IL-36R …); assay: cell-based or functional assay; remark: listed apart in the source
[5] = target: T2, human IL-36α(R12), truncated; assay: SPR, Biacore, 1:1 Langmuir fit; heads of c3 and c4 printed swapped
Method: (§1) The humanized antibodies obtained in Example 6 were tested for their binding to recombinant human or cynomolgus macaque IL36a and IL-36γ in Biacore assays. The association time was set to 60 seconds, and the final dissociation time was set to 600 seconds. Equilibrium dissociation constant KD (kd/ka) of exemplary antibodies was determined using a 1:1 Langmuir fit model (see Tables 17-18 below).

[6] = target: B5; assay: as above
Method: as §1

[7] = target: T3, cynomolgus IL-36α, truncated; assay: as above
Method: as §1

[8] = target: T4, cynomolgus IL-36γ, truncated; assay: as above
Method: as §1

[9] = target: T2, human IL-36α(R12), truncated; assay: SPR, Biacore, 1:1 Langmuir fit
Method: as §1

[10] = target: B5; assay: SPR, Biacore, 1:1 Langmuir fit
Method: as §1

[11] = target: T3, cynomolgus IL-36α, truncated; assay: SPR, Biacore, 1:1 Langmuir fit
Method: as §1

[12] = target: T4, cynomolgus IL-36γ, truncated; assay: SPR, Biacore, 1:1 Langmuir fit
Method: as §1

[13] = target: B5; assay: cell-based or functional assay
[14] = target: T5, human IL-36α (R&D Systems …); assay: cell-based or functional assay
[15] = target: B5; assay: cell-based or functional assay; remark: listed apart in the source
[16] = target: T5, human IL-36α (R&D Systems …); assay: cell-based or functional assay; remark: listed apart in the source
[17] = target: T1, IL-36 receptor (heterodimer of IL-36R …); assay: cell-based or functional assay; remark: listed apart in the source

## B1
[1]
  IC50 of IL-8 secretion, primary human monocytes, 6 nM human IL-36γ, FIG. 5C: 38 nM
  IC50 of IL-8 secretion, primary human monocytes, 20 nM human IL-36α, FIG. 5A: 46.5 nM
  IC50 of IL-8 secretion, primary human monocytes, 40 nM human IL-36α, FIG. 5B: 69.1 nM
  IC50 of IL-8 secretion, primary human monocytes, 50 nM human IL-36γ, FIG. 5D: 76.3 nM
[2]
  IC50 of IL-8 secretion, primary human keratinocytes, 6.25 nM human IL-36α, FIG. 4A: 11.2 nM
  IC50 of IL-8 secretion, primary human keratinocytes, 8 nM human IL-36α, FIG. 4B: 34.6 nM
  IC50 of IL-8 secretion, primary human keratinocytes, 8.4 nM human IL-36γ, FIG. 4C: 109 nM
  IC50 of IL-8 secretion, primary human keratinocytes, 8.4 nM human IL-36γ, FIG. 4D: 47.9 nM
[3]
  IC50 of IL-8 secretion, HaCaT, 10 nM cynomolgus IL-36α, FIG. 2A: 21.8 nM
  IC50 of IL-8 secretion, HaCaT, 10 nM cynomolgus IL-36α, FIG. 2B: 20.8 nM
  IC50 of IL-8 secretion, HaCaT, 10 nM human IL-36α, FIG. 1A: 39.9 nM
  IC50 of IL-8 secretion, HaCaT, 10 nM human IL-36α, FIG. 1B: 46.6 nM
  IC50 of IL-8 secretion, HaCaT, 10 nM human IL-36α, FIG. 1C: 90.6 nM
[4]
  IC50 of IL-8 secretion, HaCaT, 10 nM cynomolgus IL-36γ, FIG. 2C: 174 nM
  IC50 of IL-8 secretion, HaCaT, 10 nM cynomolgus IL-36γ, FIG. 2D: 235 nM
  IC50 of IL-8 secretion, HaCaT, 10 nM human IL-36γ, FIG. 1D: 45.1 nM
  IC50 of IL-8 secretion, HaCaT, 10 nM human IL-36γ, FIG. 1E: 86.5 nM
  IC50 of IL-8 secretion, HaCaT, 10 nM human IL-36γ, FIG. 1F: 129 nM

## B2
[5]
  koff: 0.000445 s⁻¹
  kon: 212000 M⁻¹ s⁻¹
[6]
  koff: 0.000436 s⁻¹
  kon: 336000 M⁻¹ s⁻¹
[7]
  koff: 0.000422 s⁻¹
  kon: 354000 M⁻¹ s⁻¹
[8]
  koff: 0.000493 s⁻¹
  kon: 434000 M⁻¹ s⁻¹
[9]
  Kd: 2.1 nM
[10]
  Kd: 1.3 nM
[11]
  Kd: 1.19 nM
[12]
  Kd: 1.13 nM
[13]
  IC50 of IL-8 secretion (AlphaLISA), HaCaT, 10 nM human IL-36γ: 12.5 nM
[14]
  IC50 of IL-8 secretion (AlphaLISA), HaCaT, 10 nM human IL-36α: 4.51 nM

## B3
[5]
  koff: 0.000456 s⁻¹
  kon: 219000 M⁻¹ s⁻¹
[6]
  koff: 0.000451 s⁻¹
  kon: 343000 M⁻¹ s⁻¹
[7]
  koff: 0.000451 s⁻¹
  kon: 362000 M⁻¹ s⁻¹
[8]
  koff: 0.000523 s⁻¹
  kon: 443000 M⁻¹ s⁻¹
[9]
  Kd: 2.09 nM
[10]
  Kd: 1.31 nM
[11]
  Kd: 1.25 nM
[12]
  Kd: 1.18 nM
[13]
  IC50 of IL-8 secretion (AlphaLISA), HaCaT, 10 nM human IL-36γ: 7.83 nM
[14]
  IC50 of IL-8 secretion (AlphaLISA), HaCaT, 10 nM human IL-36α: 3.9 nM

## B4
[15]
  IC50 of IL-8 secretion (AlphaLISA), HaCaT, 10 nM human IL-36γ: 11.5 nM
[16]
  IC50 of IL-8 secretion (AlphaLISA), HaCaT, 10 nM human IL-36α: 5.13 nM
[5]
  koff: 0.000843 s⁻¹
  kon: 850000 M⁻¹ s⁻¹
[6]
  koff: 0.000625 s⁻¹
  kon: 999000 M⁻¹ s⁻¹
[7]
  koff: 0.00103 s⁻¹
  kon: 1.53e+06 M⁻¹ s⁻¹
[8]
  koff: 0.000603 s⁻¹
  kon: 1.09e+06 M⁻¹ s⁻¹
[9]
  Kd: 0.992 nM
[10]
  Kd: 0.625 nM
[11]
  Kd: 0.674 nM
[12]
  Kd: 0.552 nM

## B5
[17]
  EC50 (read off the curve): ~1 nM
